Test: Western blot (data not shown)
Conditions: glycan lost; control: wild-type NOS1AP

expression_or_secretion, no change:
NOS1AP (CAPON): S47A
NOS1AP (CAPON): S183A
NOS1AP (CAPON): S204A
NOS1AP (CAPON): S269A
NOS1AP (CAPON): S271A

— paper PMC4519966
